One assay deals with T1, FGF23 binding to FGFR2c (Homo sapiens, UniProt P21802).
T1 construct: Fc-coupled FGFR ectodomains were immobilized on protein A/G beads; purchased R&D Systems 2604FG025/CF or 2629FG025/CF; 712FR050
Description: Plate-based binding, FGF23 coated, then sKL, heparin or PBS, then Fc-FGFR. To be noted: with sKL, with heparin 0.4 USP, or alone. The procedure: (§1) Proteins were coated on 96-well plates (MaxiSorp; 439454, Thermo Fisher Scientific), and proteins were added to wells in 100 μl of enzyme-linked immunosorbent assay (ELISA) coating buffer (E107, Bethyl Laboratories) with a lid placed overtop and incubated at 4° C. overnight. Plates were washed 5× with 350 μl of assay buffer (50 mM Tris [pH 7.4], 200 mM NaCl, 0.01% Tween 20) on a 50 TS microplate washer (BioTek). Plates were blocked for 1 hour in 200 μl of assay buffer with 0.5% BSA. Plates were washed as before, and proteins were incubated on plates in 100 μl of assay buffer with 0.5% BSA. Proteins or heparin was incubated in orders described in the respective figure legends. Assays using FLAG-tag-based detection were incubated with anti-FLAG coupled to HRP at 1:20,000, and assays using Fc detection were incubated with anti-human Fc coupled to HRP at 1:10,000. Plates were washed as above, and 100 μl of 3,3′,5,5′-tetramethylbenzidine (TMB) substrate (E102, Bethyl Laboratories) was added for 15 to 20 minutes until positive wells developed a dark blue color. Reactions were stopped with ELISA stop solution (E115, Bethyl Laboratories) and analyzed using the Synergy HI plate reader (BioTek) at 450 nm wavelength. […] As a control to remove background absorbance values, wells were coated with an equal amount of BSA to match the amount of protein coated in experimental wells and treated the same as experimental wells. To study the effects of sKL on the binding between paracrine FGFs and FGFRs, plates were run as above except coated with paracrine FGFs. Fc-FGFR1 was preincubated with sKL or vehicle for 60 minutes, and then the combination was added to wells and the assay was run as before.

For another assay, the target named is T2, FGF23 binding to FGFR3c (Homo sapiens, UniProt P22607+Q9GZV9).
T2 construct: Fc-coupled FGFR ectodomains were immobilized on protein A/G beads; purchased R&D Systems 2604FG025/CF or 2629FG025/CF; 766FR050
T2 sequence (Q9GZV9 25-251): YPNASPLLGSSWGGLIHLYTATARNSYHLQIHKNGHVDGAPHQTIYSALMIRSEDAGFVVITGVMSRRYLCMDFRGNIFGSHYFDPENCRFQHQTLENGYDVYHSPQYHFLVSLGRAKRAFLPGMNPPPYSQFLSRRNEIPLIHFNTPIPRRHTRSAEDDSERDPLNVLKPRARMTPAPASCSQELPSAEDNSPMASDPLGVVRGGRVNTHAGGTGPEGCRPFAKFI
T2 sequence (P22607 23-375 limits assumed): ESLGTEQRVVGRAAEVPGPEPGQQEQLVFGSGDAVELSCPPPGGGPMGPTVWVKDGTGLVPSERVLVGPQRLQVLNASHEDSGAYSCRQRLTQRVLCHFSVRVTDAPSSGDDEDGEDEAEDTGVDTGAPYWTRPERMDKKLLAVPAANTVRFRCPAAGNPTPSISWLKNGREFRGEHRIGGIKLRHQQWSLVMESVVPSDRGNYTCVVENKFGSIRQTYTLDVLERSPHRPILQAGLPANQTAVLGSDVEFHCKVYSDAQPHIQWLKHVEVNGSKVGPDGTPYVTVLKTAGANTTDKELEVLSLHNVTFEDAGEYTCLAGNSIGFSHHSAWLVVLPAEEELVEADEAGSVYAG
Described as above. The note with it: with sKL, with heparin 0.4 USP, or alone. As to the method: as §1

Entries after “also recorded” stand apart in the source; their conditions may differ.

T1 sequence (P21802 22-377 limits assumed): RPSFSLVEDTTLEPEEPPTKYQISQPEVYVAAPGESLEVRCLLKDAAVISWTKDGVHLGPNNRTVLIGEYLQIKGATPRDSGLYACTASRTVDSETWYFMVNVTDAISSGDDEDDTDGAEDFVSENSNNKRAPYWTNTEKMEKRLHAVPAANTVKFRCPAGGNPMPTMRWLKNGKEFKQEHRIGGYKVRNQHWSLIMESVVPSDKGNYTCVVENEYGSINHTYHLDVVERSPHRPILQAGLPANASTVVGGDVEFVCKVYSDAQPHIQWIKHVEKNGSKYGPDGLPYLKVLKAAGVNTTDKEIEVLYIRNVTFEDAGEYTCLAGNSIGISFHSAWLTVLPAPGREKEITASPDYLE

B1: sKL: recombinant soluble α-klotho ectodomain, mouse aa 35-982 and human aa 34-981, FLAG- or Strep/His-tagged, purified from HEK293 cells (protein)
chain: EPGDGAQTWARFSRPPAPEAAGLFQGTFPDGFLWAVGSAAYQTEGGWQQHGKGASIWDTFTHHPLAPPGDSRNASLPLGAPSPLQPATGDVASDSYNNVFRDTEALRELGVTHYRFSISWARVLPNGSAGVPNREGLRYYRRLLERLRELGVQPVVTLYHWDLPQRLQDAYGGWANRALADHFRDYAELCFRHFGGQVKYWITIDNPYVVAWHGYATGRLAPGIRGSPRLGYLVAHNLLLAHAKVWHLYNTSFRPTQGGQVSIALSSHWINPRRMTDHSIKECQKSLDFVLGWFAKPVFIDGDYPESMKNNLSSILPDFTESEKKFIKGTADFFALCFGPTLSFQLLDPHMKFRQLESPNLRQLLSWIDLEFNHPQIFIVENGWFVSGTTKRDDAKYMYYLKKFIMETLKAIKLDGVDVIGYTAWSLMDGFEWHRGYSIRRGLFYVDFLSQDKMLLPKSSALFYQKLIEKNGFPPLPENQPLEGTFPCDFAWGVVDNYIQVDTTLSQFTDLNVYLWDVHHSKRLIKVDGVVTKKRKSYCVDFAAIQPQIALLQEMHVTHFRFSLDWALILPLGNQSQVNHTILQYYRCMASELVRVNITPVVALWQPMAPNQGLPRLLARQGAWENPYTALAFAEYARLCFQELGHHVKLWITMNEPYTRNMTYSAGHNLLKAHALAWHVYNEKFRHAQNGKISIALQADWIEPACPFSQKDKEVAERVLEFDIGWLAEPIFGSGDYPWVMRDWLNQRNNFLLPYFTEDEKKLIQGTFDFLALSHYTTILVDSEKEDPIKYNDYLEVQEMTDITWLNSPSQVAVVPWGLRKVLNWLKFKYGDLPMYIISNGIDDGLHAEDDQLRVYYMQNYINEALKAHILDGINLCGYFAYSFNDRTAPRFGLYRYAADQFEPKASMKHYRKIIDSNGFPGPETLERFCPEEFTVCTECSFFHTRKS
modifications: left off: small tags and cut ends
notes: recombinant soluble α-klotho ectodomain, mouse aa 35-982 and human aa 34-981, FLAG- or Strep/His-tagged, purified from HEK293 cells
For B1, in the assay with FGF23 binding to FGFR2c, the “binding of coated FGF23 to Fc-FGFR2c” value is given as “no binding”. In addition, the “binding of coated FGF23 to Fc-FGFR3c” value with FGF23 binding to FGFR3c is “lower affinity; also recorded: weaker binding”.
